For experiment [1], the system named is red blood cell, white blood cell and immune cell populations. In words: Haematological evaluation and flow cytometric analysis, test diets with chemotherapy (Example 2). The format is in vivo, mice. As for the experimental part: The animals were distributed into 7 different group diets. There was a control group that received the diet AIN 93 for adult rodents (maintenance). Test diets were administered in doses appropriate to the animal model: (a) Ctrl diet were supplemented with 1% (w/w) L-arginine, (b) 25% of the protein was replaced by glutamine, (c) 1% (w/w) L-citrulline, (d) 1 g/Kg body weight with active hexose correlated compound, (e) 20 mg/day of RNA nucleotides and (f) 25 mg/day of lactoferrin. […] Control animals without chemotherapeutic treatment were run in parallel for all tested diets. Body weight was assessed every two days. Blood samples were obtained at day 2, 4 and 10 after the chemo-treatment and at sacrifice (14 or 28 days). An autopsy was performed and tumor mass was assessed.
Background: Flow cytometry measures light scatter and fluorescence of single cells or particles in a stream.

Experiment [2] relates to immune cells. In words: Nutritional intervention on immune cells in tumor burdened animals with and without chemotherapy (FIG. 11). It is filed as in vivo. The source says:
FIG. 11 illustrates a graph of the effect of nutritional intervention on immune cells in tumor burdened animals with and without chemotherapy in accordance with an embodiment of the present disclosure.

B1: lactoferrin: diet with 25 mg/day of lactoferrin (protein, UniProt P24627 20-708, looked up)
Lactotransferrin: APRKNVRWCTISQPEWFKCRRWQWRMKKLGAPSITCVRRAFALECIRAIAEKKADAVTLDGGMVFEAGRDPYKLRPVAAEIYGTKESPQTHYYAVAVVKKGSNFQLDQLQGRKSCHTGLGRSAGWIIPMGILRPYLSWTESLEPLQGAVAKFFSASCVPCIDRQAYPNLCQLCKGEGENQCACSSREPYFGYSGAFKCLQDGAGDVAFVKETTVFENLPEKADRDQYELLCLNNSRAPVDAFKECHLAQVPSHAVVARSVDGKEDLIWKLLSKAQEKFGKNKSRSFQLFGSPPGQRDLLFKDSALGFLRIPSKVDSALYLGSRYLTTLKNLRETAEEVKARYTRVVWCAVGPEEQKKCQQWSQQSGQNVTCATASTTDDCIVLVLKGEADALNLDGGYIYTAGKCGLVPVLAENRKSSKHSSLDCVLRPTEGYLAVAVVKKANEGLTWNSLKDKKSCHTAVDRTAGWNIPMGLIVNQTGSCAFDEFFSQSCAPGADPKSRLCALCAGDDQGLDKCVPNSKEKYYGYTGAFRCLAEDVGDVAFVKNDTVWENTNGESTADWAKNLNREDFRLLCLDGTRKPVTEAQSCHLAVAPNHAVVSRSDRAAHVKQVLLHQQALFGKNGKNCPDKFCLFKSETKNLLFNDNTECLAKLGGRPTYEEYLGTEYVTAIANLKKCSTSPLLEACAFLTR
On to B1, for which the Global lymphocyte population result in experiment [1] (following chemotherapy, supplemented diets) is recorded as “less depressed”. The “leukocytic increase (white blood cell counts)” value in experiment [1] (oxaliplatin treated animals, supplemented diet 25 mg/day) is given as “tended to be higher”. Besides, the “toxicity (immune cells)” value in experiment [2] (chemotherapy treated group as compared to the control (FIG. 11)) is listed as “less toxicity”. In addition, in experiment [2] (during the second phase (tumor-induced toxicity)), the “immune cell population / concentration” value is listed as “increase in their immune cell population”.
